From paper PMC5576923

Legend:
[1] = molecular target: β-Arrestin1 (human (endogenous in Caco-2 and HCT116)) (UniProt P49407); assay: proximity ligation; Duolink II red kit on fixed, permeabilised cells; PTEN-/- HCT116 cells transfected 24 hr with GFP-tagged EV or PTEN constructs, HCT116 cells as positive control; signal as AI units, n = 35 cells per condition in triplicate
[2] = molecular target: β-Arrestin1 (human (endogenous in Caco-2 and HCT116)) (UniProt P49407); assay: co-IP; competition in cells: Caco-2 or HCT116 cells treated with 10 μM pep24 or 10 μM scrambled control peptide for 24 hr, then β-Arrestin1 immunoprecipitated and ARHGAP21 blotted

β-Arrestin1 (human (endogenous in Caco-2 and HCT116)), sequence (P49407 whole entry): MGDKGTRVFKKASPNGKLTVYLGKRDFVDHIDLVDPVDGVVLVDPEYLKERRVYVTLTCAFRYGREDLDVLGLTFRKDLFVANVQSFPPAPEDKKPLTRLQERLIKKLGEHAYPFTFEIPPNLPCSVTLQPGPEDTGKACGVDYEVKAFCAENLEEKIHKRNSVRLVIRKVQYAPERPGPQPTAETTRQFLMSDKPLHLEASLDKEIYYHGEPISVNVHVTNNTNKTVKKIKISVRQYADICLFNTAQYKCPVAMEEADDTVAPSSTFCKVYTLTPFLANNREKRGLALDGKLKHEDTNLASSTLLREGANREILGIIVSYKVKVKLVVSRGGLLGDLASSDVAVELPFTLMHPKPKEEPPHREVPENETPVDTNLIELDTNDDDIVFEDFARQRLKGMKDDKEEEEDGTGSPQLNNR
cell permeant β-Arrestin1-ARHGAP21 binding disruptor peptide pep24, sequence (Q5T5U3 1331-1355): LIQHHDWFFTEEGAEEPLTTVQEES

| PLA interaction AI [1] | fold change of β-Arrestin1-associated ARHGAP21 (ADU), pep24 vs control peptide, Caco-2 cells [2] | fold change of β-Arrestin1-associated ARHGAP21 (ADU), pep24 vs control peptide, HCT116 cells [2] | Substance |
| --- | --- | --- | --- |
| 38.3 AI units | – | – | GFP-labeled isolated PTEN C2 domain (domain or fragment) |
| – | 0.63 fold change | 0.39 fold change | cell permeant β-Arrestin1-ARHGAP21 binding disruptor peptide pep24 (from UniProt Q5T5U3 1331-1355) |
